Test results as given in US20120165340.

Molecular target: FLAG-HA-PTEN, P60484
Sequence (P60484 whole entry): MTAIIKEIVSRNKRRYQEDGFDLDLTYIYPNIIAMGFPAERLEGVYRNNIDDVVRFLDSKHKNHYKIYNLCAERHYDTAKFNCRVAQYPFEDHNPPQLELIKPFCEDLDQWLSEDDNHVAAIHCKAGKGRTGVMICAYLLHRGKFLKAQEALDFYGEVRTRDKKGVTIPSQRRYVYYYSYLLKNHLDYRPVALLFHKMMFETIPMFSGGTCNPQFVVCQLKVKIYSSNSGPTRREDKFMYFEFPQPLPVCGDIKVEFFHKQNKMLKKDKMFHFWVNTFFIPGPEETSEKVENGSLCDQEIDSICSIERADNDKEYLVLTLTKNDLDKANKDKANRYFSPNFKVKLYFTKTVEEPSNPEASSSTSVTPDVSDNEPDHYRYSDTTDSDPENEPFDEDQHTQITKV

B1: Lyn (protein)
chain: GCIKSKGKDSLSDDGVDLKTQPVRNTERTIYVRDPTSNKQQRPVPESQLLPGQRFQTKDPEEQGDIVVALYPYDGIHPDDLSFKKGEKMKVLEEHGEWWKAKSLLTKKEGFIPSNYVAKLNTLETEEWFFKDITRKDAERQLLAPGNSAGAFLIRESETLKGSFSLSVRDFDPVHGDVIKHYKIRSLDNGGYYISPRITFPCISDMIKHYQKQADGLCRRLEKACISPKPQKPWDKDAWEIPRESIKLVKRLGAGQFGEVWMGYYNNSTKVAVKTLKPGTMSVQAFLEEANLMKTLQHDKLVRLYAVVTREEPIYIITEYMAKGSLLDFLKSDEGGKVLLPKLIDFSAQIAEGMAYIERKNYIHRDLRAANVLVSESLMCKIADFGLARVIEDNEYTAREGAKFPIKWTAPEAINFGCFTIKSDVWSFGILLYEIVTYGKIPYPGRTNADVMTALSQGYRMPRVENCPDELYDIMKMCWKEKAEERPTFDYLQSVLDDFYTATEGQYQQQP
phosphorylation of PTEN on Y240 (Western blot with anti-pY240): Upon co-expression of the Lyn cDNA with PTEN in HEK 293 cells, we observed a robust phosphorylation of PTEN on Y240
phosphorylation of Y240 of PTEN (Western blot, FIG. 15): the phosphorylation of Y240 is much greater in the presence of lyn than when src is expressed with PTEN
